Assay results from patent US20230270636A1, “GOLD AND PALMITOYL PENTAPEPTIDE-4 NANOPARTICLES” (INFINITEC ACTIVOS, S.L., priority 2018, published 2023).
Where a SMILES comes first, the peptide text is derived from it. Where no end group is shown, it is not given here. The star is where a group is joined. Palmitoyl = CCCCCCCCCCCCCCCC(=O)*

What was measured:
[1] = Zeta potential of nanoparticles (Zetasizer Nano ZS); type: physicochemical; conditions: 1 mg/mL in water, 25° C.
Description: The preparation of the samples for determining the Z potential consists of weighing 1 mg if it is powder and it is suspended in 1 mL of milli-Q H2O. Whereas in the case of liquid samples, a 100 μL aliquot of the sample to which 900 μL of milli-Q H2O are added is collected with an automatic pipette. Then the Z potential measurement is taken using DTS1070 plastic cuvettes and Zetasizer Nano ZS series equipment (Malvern Instruments) of the Instituto de Quimica Avanzada de Cataluña (Advanced Chemistry Institute of Catalonia), CSIC.
(§1) The Z potential of the nanoparticles synthesized was determined using DTS1070 plastic cuvettes and Zetasizer Nano ZS series equipment (Malvern Instruments, of the Instituto de Quimica Avanzada de Cataluña, CSIC). The preparation of the samples consists of 1 mg if it is powder and it is suspended in 1 mL of milli-Q H2O. In the case of liquid samples, a 100 μL aliquot of the sample to which 900 μL of milli-Q H2O are added is collected with an automatic pipette such that there is always a concentration of 1 mg/mL of sample. Then the Z potential measurement is taken at a temperature of 25° C.

[2] = Nanoparticle size by dynamic light scattering (DLS); type: physicochemical; conditions: 1 mg/mL in water, 25° C.
Description: The size of the nanoparticles can be determined by means of conventional methods in the art, particularly by means of dynamic light scattering (DLS). First the samples are prepared to determine particle size. To that end, 1 mg is weighed if it is powder and it is suspended in 1 mL of milli-Q H2O. In the case of liquid samples, a 100 μL aliquot of the sample to which 900 μL of milli-Q H2O are added is collected with an automatic pipette. Then the particle size measurement is taken using quartz cuvettes and Zetasizer Nano ZS series equipment (Malvern Instruments) of the Instituto de Quimica Avanzada de Cataluña (Advanced Chemistry Institute of Catalonia), CSIC.
as §1, with “The size” for “The Z potential”, “nanoparticles (GNP, GNP-P1, and GNP-P2)” for “nanoparticles synthesized”, “determined by dynamic light scattering (DLS) for which quartz” for “determined using DTS1070 plastic”, “Instruments,” for “Instruments, of the”, “de Cataluña) were used.” for “de Cataluña, CSIC).”, “the particle size” for “the Z potential”

[3] = Concentration of peptide incorporated in nanoparticles by HPLC; type: physicochemical; conditions: UV 220 nm
Description: The concentration of the peptide (P1 or P2) incorporated in the nanoparticles (GNP-P1 and/or GNP-P2) was determined by HPLC, using a Waters 996 photodiode array detector instrument equipped with a Waters 2695 separation module and Millenium software. An Xbridge BEH130 C18 4.6×100 mm 3.5 μm reverse phase HPLC column by Waters was used. UV detection was performed at 220 nm, and a mobile phase B gradient of 5 to 100% was performed for 8 minutes at a flow rate of 1.0 ml/min. Under these conditions, the retention time being 6.4 min for both peptides P1 and P2. Mobile phase A: 0.045% of TFA/H2O, mobile phase B: 0.036% of TFA/ACN.

[4] = Cutaneous penetration using Franz diffusion cells; type: in vitro ADME; conditions: pig skin, 20 h incubation; for Cutaneous penetration (skin layers reached): 32° C., receptor solution analysed; for Change in cutaneous penetration upon conjugating the peptide with gold nanoparticles: FIG. 1
Description: Cutaneous penetration was determined using Franz cells. The pig skin samples used in the experiments were cut into circles 3 cm in diameter. The pig skin was mounted on the receptor compartment of a Franz diffusion cell system with the stratum corneum facing up towards the donor compartment. 18 ml of phosphate-buffered saline (PBS) were used as receptor solution. An aliquot of the test samples (nanoparticles of Example 1 (GNP-P1), nanoparticles of Example 2 (GNP-P2), nanoparticles of Example 3 (GNP), formulation of peptide P1 of Example 4, formulation of peptide P2 of Example 5, mixture of nanoparticles and peptide P1 (GNP+P1) of Example 6 was applied on the pig skin. The Franz diffusion cells were mounted on an H+P Labortechnik Varimag Telesystem (Munich, Germany) and placed in a thermostatic bath (Haake).
Untreated skin control was also included. The Franz diffusion cells were kept at 32° C., and after 20 h of incubation, the receptor solution was analyzed by means of UV-visible absorption spectroscopy using a Shimadzu spectrophotometer UV-1800 (Parc Cientific of Barcelona) and quartz cuvettes (Hellma Analytics) to quantify the amount of gold nanoparticles present (GNP, GNP-P1, and GNP-P2). The amount of free peptide (P1, P2) was determined by means of HPLC, using a Waters 996 photodiode array detector instrument equipped with a Waters 2695 separation module and Millenium software. An Xbridge BEH130 C18 4.6×100 mm 3.5 μm reverse phase HPLC column by Waters was used. In both cases, UV detection was performed at 220 nm. Peptide P1 was analyzed with a mobile phase B gradient of 5 to 100% for 8 minutes at a flow rate of 1.0 ml/min, the retention time being 6.5 minutes. Peptide P2 was analyzed with a mobile phase B gradient of 0 to 20% for 8 minutes at a flow rate of 1.0 ml/min, the retention time being 1.5 minutes. The eluents used in both cases were: Mobile phase A: 0.045% of TFA/H2O, mobile phase B: 0.036% of TFA/ACN.

Compound | Nanoparticle Zeta potential [1] [mV] | Nanoparticle diameter [2] | Maximum concentration of peptide in nanoparticles [3] [mg/mL] | Cutaneous penetration (skin layers reached) [4] | Change in cutaneous penetration upon conjugating the peptide with gold nanoparticles [4]
GNP − P2: gold nanoparticles conjugated with the peptide of formula (II) (P2; Palm-SEQ ID NO: 2) (Palmitoyl-CKTTKSCTTKS; cysteine pairing not given here; also: conjugated to gold nanoparticles) | −59 | 150-200 nm | 0.3 |  | 
GNP − P1: gold nanoparticles conjugated with the peptide of formula (I) wherein R is a palmitoyl moiety (Palm-SEQ ID NO: 1) (Palmitoyl-KTTKS; also: conjugated to gold nanoparticles) | −35 | 150-200 nm | 0.3 | penetration reached more internal layers such as the epidermis and dermis | considerable increase in penetration
CCCCCCCCCCCCCCCC(=O)N[C@@H](CCCCN)C(=O)N[C@H](C(=O)N[C@H](C(=O)N[C@@H](CCCCN)C(=O)N[C@@H](CO)C(=O)O)[C@@H](C)O)[C@@H](C)O [Example P1, Palm-L-Lys-L-Thr-L-Thr-L-Lys-L-Ser-OH] (Palmitoyl-KTTKS-OH) |  |  |  | only penetrated the outermost layers external of the skin | 
Palm-L-Cys-L-Lys-L-Thr-L-Thr-L-Lys-L-Ser-L-Cys-L-Thr-L-Thr-L-Lys-L-Ser-OH [Example P2] |  |  |  |  | increase in penetration is not observed
